assay: soluble on expression in E. coli; label from the status in PepcDB or PDB records

Row | Sequence | soluble on expression in E. coli
1 | GPGSMDLNMRLLTRIFTYRRNHAEQGTIMSSKIAELSGRILSQQQYSQILEQRRWLQGLLKEVSLDMGAKEKEKSASPVVLPYGSIVSGTSFKDGDADYIVSFPIVSESTRQSGACVIDRERQEKFLSDIFSHIRKRNSDVELHPQRIFRARVPIVQYVRKSGQESARFDLSLSLDGLKNSLLLRQYMAGDPRLRLGVLGAKQWGREQQILNARRGWISPYALSIMYIHYMKETGRTALSFDEEAVSQRVNAIVSTAAESEGDISHVDELASILPLQEADMLLVEKDVFDFFAFYGTPGGFDFDASVVDIRSRERFSSKDQWCQLLDQLDERERWNLLGHEVILLRDPFEPHSLGRSVDFFRGEEIRERFRSAAVRKEPLSLFAFL | not soluble
2 | MADVATKHPMEDEVKKTEASSLVGKLETDVEIKASADKFHHMFAGKPHHVSKASPGNIQGCDLHEGDWGTVGSIVFWNYVHDGEAKVAKERIEAVEPDKNLITFRVIEGDLMKEYKSFLLTIQVTPKPGGPGSIVHWHLEYEKISEEVAHPETLLQFCVEVSKEIDEHLLAEEEEVKTPETPSLVGKLETDVEIKASAEKFHHMFAGKPHHVSKASPGNIQGCDLHEGDWGQVGSIVFWNYVHGKEAKVAKERIEAVEPNKNLITFRVIDGDLMKEYKSFLLTIQVTPKLGGPGSIVHWHLEYEKISEEVAHPETLLQFCVEVSKEIDEHLLAEE | soluble
3 | SFDRALKPFLKSCHFQTLRDPVDQCVSYHLRSVTEKFPEVHMEVIADYEVHPNRRPKILAQTAAHVAGAAYYYQRQDVDADPWGTQHIAGVCIHPRFGGWFAIRGVMLLPGIEVPNLPPRKPPDCVPTRAGRITLLEGFNFHWRDWTYRDAVTPEERYSEEQKIYFSTPPAQRLALLGLAQPSEHPSTTSELPLSLLTKPQNSRRARSWLSPSVSPPVSPGP | soluble
4 | NGFDREMRTRILGMVPQATVESYQPIDDWRALAEKVKAHEHVTAVAPFTQMQGMLSANGAVQTVMVDAVDPLEEAKVSIIPDFFKQGSLAELKAGGFGIVIGQLAAQKLGVGIGDKVTLILPEVAVTPAGVFPRMKRFTVVGTFRVGAGELDGGLSLIHLEDAARLQRWKTNQVQGLRLKLDDLFQAPRVAWEIARTLTDNDFYARDWTRSHGNLYQAIRMEKT | not soluble
5 | MKQLTVEDAKQIELEILDYIDTLCKKHNINYIINYGTLIGAVRHEGFIPWDDDIDLSMPREDYQRFINIFQKEKSKYKLLSLETDKNYFNNFIKITDSTTKIIDTRNTKTYESGIFIDIFPIDRFDDPKVIDTCYKLESFKLLSFSKHKNIVYKDSLLKDWIRTAFWLLLRPVSPRYFANKIEKEIQKYSRENGQYMAFIPSKFKEKEVFPSGTFDKTIDLPFENLSLPAPEKFDTILTQFYGLEHHHHHH | not soluble
6 | MANEANPCPCDIGHKLEYGGMGHEVQVEHIKAYVTRSPVDAGKAVIVVQDIFGWQLPNTRYMADMIARNGYTTIVPDFFVGQEPWDPAGDWSTFPAWLKSRNARKVNREVDAVLRYLRQQCHAQKIGIVGFCWGGVVVHQVMTAYPDIRAGVSVYGIIRDSEDVYNLKNPTLFIFAENDTVIPLEQVSTLTQKLKEHCIVNYQVKTFSGQTHGFVHRKREDCSPADKPYIEEARRNLIEWLNKYV | not soluble
7 | MSLSNSPLPPNATPMERALAAVTERLEAIPLPYPDLWNPDTCPAGHLPWLAWTLSVDDWKADWSDAVKRSRLRSAMAIQRRKGTANSVRMVVASFGGAVTIREWWQQQPRGQPHTFELTLTLNGSDGRAASARFVDEVIAEVERTKPVRSHFGFVQGLQATGNVSLVTGVRIINYRRLSMMAQGEGHHHHHH | not soluble
8 | MNQPDISTLVQRIEQLELNQSRLRILLSHAPEKHKAFDKACYVANLSFEQEAHVRQTILDFLDSDKEDINELLSSIEAIVRYTVDAKSLISGFKMRGTAPDRWKQIDPHNEC | not soluble
9 | GIQPVISAQEQETQIVLYGKLVEARQKHANKMDVPPAILATNKILVDMAKMRPTTVENVKRIDGVSEGKAAMLAPLLEVIKHFCQTNSVQTDLFSSTKPQEEQ | soluble
10 | MQTFNRERLEFALDKRGCTQTKLAELLGITARQVRNYVKDEQIPDLNELANLLEFPVHFFTNDERLPELKSQAVSFRARSRTSKRLEKQALNHSITAFLLNDWLETEFTLSQAVLPDFSDISPEEAAQELRLEWGLGNEPIPNMITLLEVKGVRVFSLSLDTKDIDAFCTWYENHPFVFLNTQKSAERSRFDAAHELGHLIRDKYSMEHSKNSEITEDEPRDIIEKEANAFASAFLMPEAALRLYRHVPITIENLLKIKRRFGVSLVALAYRMHKLGMITDRMYIHNLCPLFAKKKYRTIEPEPMEREISSALRKMLTILKNDGIGIEQIAENLNVSPKDVADLTFGLVERDLNRYRKLRLVK | not soluble
11 | MKQFLITGGTGMVGSQLVNKLKNRDVHITILTRSDKQSDDPKISYVNWSKDGWMSQVPDIDVVVNLAGATLNKRWTPSYKQLIMTSRIQSTQSLVDLFSQREHKPEVLFNASAMGYYPPSLYHTYTEKYQTHPFDFLSDVVYQWERFAKRFESFGTRVVLGRFSMILSNDGGALQTMKLPYKFFVGGKLGSGFQWYSWIHINDLVRAILFTIDNPNAKGPFNMAAPIAERQNLFGYTLARVMHRPHETWVPSFLMRLALGEMSTVVLDTQKVLPNKLDALGFTFNYSNLKIAFEDLIDALEHHHHHH | not soluble
12 | MGHHHHHHSHMPKSQVKRQEVISELLVTEAAHVRMLRVLHDLFFQPMAECLFFPLEELQNIFPSLDELIEVHSLFLDRLMKRRQESGYLIEEIGDVLLARFDGAEGSWFQKISSRFCSRQSFALEQLKAKQRKDPRFCAFVQEAESRPRCRRLQLKDMIPTEMQRLTKYPLLLQSIGQNTEEPTEREKVELAAECCREILHHVNQAVRDMEDL | not soluble
13 | MDYKTCPFHLVFLYSINPREPRLRKKIYYMMETESRLVVSHALIMYDYNQEGELPRMHGGYLKRFAKRATKRPDPFFQPTQIHDIDNDVSDMSECEKECPFAVPAQAADDGSLYLQLLDMEFWNDRNRQLHFLVNKPSLIESLGCLNNRVPALPPATTGKAAFVFFIDGLEVDARNLTCDGLVPWSENTSTNPHGITKRPKSAKQALALNREGQLRIWKTPSSHRSDLIEFQLHVYTATLPRCPRLRKKVTYVLKNGHQIGNAMIIYWYTEPGEMPAPVNVSTMSSAQEYSLQRLPPHIREDVLRLLARMTPAEVAKVILEKYGIQVNTKMLYYVRRREIMAATDGIRDAEDDHDPYELKNEMIVSAAAGDFVDDWTTDTAGASAEASEGGSRKKNVHLEEMLDERELQVSHTEEIQQPSSSQQQIQLPYRKAKYQEPKNFGQQSSGLPLSQSGMARGTSRNEALFRIAKNSFGSATDNETFDLLFKMLFEKSEHRLLQIVNHTFGVEIMAGEEMDNGEMHLHMAPDGAIVEEIVEEEVIGTVGDDVNLEEEVHENEPKVYTGEKQINDVLEQVVVEEPNHHDDHPPHELLEEDALVNPDDVIVDPNQLIIHDDDDQRQQNIQ | not soluble
14 | MEHLLAIALGPVQEFIATARRTRDLYAGSRLLSEAAARAAKALAREVGAKNLIFPAPEDEAGLERLAGAGIPNVLLVRVPEGKDPRGLGEQALGAARDYLRERAEEVLGPRRDLLFWREALAQVEDLLEGYYAYLPLEGDYPRARERLMALLAARKNTRDFAPVSWGSPAYKSSLDGARESVLRLPEKEADHLRVRLGLRPGEYLAGPDLLKRWWKAGHGFLSTTHMAALPFWEGVRRAGLEAVLKEALEELGGLVGEEARAEVRHPVLRDTPFGEWDVRLLYESRLEEFPSLAEDPGLLEKARDRLRALWRRLFPKVRVPPGAYYALLHADGDRMGETLDGLPSPEAHRRFSNALALGFAAQVKDIVEAHGGGLVYSGGDDVLALLPLHTALMAARALADRFREAMAPFGREGRAPSLSVGLAVVHHLEPLQDALDLARRAEKWAKEGEPKRNALCVAYSPRSGAERLVRGRWDENPPLTRRLLRYADLLRAGEVPSRAAYELLALVREAGEALSGEALVAEALRILGRKEMKRAYREELEAWLRTGEDVRRLAEELILARPFAEALDQAGVPVESREVWDAH | soluble
15 | MSLERTTHQSLNGSWQFQPVAATLHVTPQLQAPAGGWKKINVPDNWYRQGHDISGYAWYQTRFALDAHNASRVAHLVFHGVDYSADVWLNDRYLGHHTGYFQPFEFDVTGLVKPGENQLRVLVNSPLEQPQDWSLHKRLVKGIFSHHDTRPGGAWSERGQEKNTGGIWAPVELQFADRAAVRQLQVTPRKQATEANPQQWVVSTEADIHHDVSHETSVTVEARILPENFKGASFAFKQSQTLQPGGNHIAFSFPVDNPALWWPYEYGHPNLYRLELSVKDASGKLLDQREQVFGVREVKVDDGLQWFINGRRMFLRGTNYIASQWLAEMTPDRYRRDLEMMQAAHINAVRVHAHVTGQDFYELCDRMGILVTQDFPLLWGYSDDPDFIAEARRQAKDMVQLLQRHPSIISWTMHNEPPWDSPWMAQKYPDYHPDINRRLDALLYEDVSKLDTLRVVRKESATKEHEWMGWYFDHWLAFSRPAPTPWSTEFGAQALPNLKSLERMFSKALLWPDTEAKWQVWEYHNFQRKETFEFAGVKQGGNIEEFIANSQHYQARLIQFAVENYRRQRYAPVSAVFQFMFVENWPSINWGIVDYWREPKAGYEALRVAYQPVLPSLEWKQDEYEAGASPRIGLWAINDTWSGFEHASYTVTLYREGKPLDMLKLPLEMLPDSGYKLRDYALPVLEKGQYEIKAEITGQDGKSMGRNQYRFSVKEGHHHHHH | soluble
16 | MCMSSQSYFKSVMYALVTGGTRGIGRAITEALLKEGYNVAVLYHGSEDKAKELREKGVLTVRCDVGDRNQVKKAKEEISNHFPRLDVLVNNAGIWYLMPFEQFDEEKYERMLRVNLNGTIYVTYEFLSLLKKSSAASIINIASNAGIGTAAEGTTFYAITKAGIIILTRRLAFELGKYGIRVNAVAPGWIETDMTLGNKSDEEKEKLREIFRNKTVLHTTGKPEDIANIVVFLASEKARYITGQVIVADGGRIDNLTHSV | soluble
17 | MKMNEIVASTQFPNTIETITKDLKALGVEKGMTIIVHSSLSSIGWISGGAVAVVEALMKVVTEEGTIIMPTQSSDLSDPKHWSRPPVPEDWWQIIRDNVPAFDSRITPTRGMGEIVECFRTYPNVVRSNHPLGSFAAWGKHAVEITMNHSLSMSFGEESPLRKIYDLDGYVLLIGVGYDSNTSVHLSEVRSGACELIQVGAPIIENGERVWKEFVEMDYESEKFVEIGVEFERKGTVKNGKIGNATCRLMKQRDIVDFGTEWFRKKN | not soluble
18 | MAHHHHHHMMNKNDITIDENNKYIFRASSFYNKDGLLIKSYSWEVREPLGIIILVHGLASHIRFGFLKQNAKIVNNDHAVLIDGDNYYIYEGSWIEKLNKNGYSVYGLDLQGHGESDGYQNLKLHIKDYDDYIYDLIDFIKSVYESIISKKEKKQMYIRDNDIIETVPIYLVGYSMGANIILRALQLLNKSNDNLISKLNIKAFISLAGMISIKNIGSIDSLKYKYLFLPIIKMLSYVCPTYRLRKKHSGFKRFPYINDLMNFDKLRYKKGMTNKLAYEVIKSVYILKKYINDIPQNVPILFIHSRHDSVCAYEEVLSFYNNLYNTNKEIYTLENMDHVVTLEPENEQALNKMLTWIKKCE | soluble
19 | GPNANPIPEHFFAPYIDMSLSVHKPLVEYAKLTGTKYFTLAFILYSSVYNGPAWAGSIPLEKFVDEVRELREIGGEVIIAFGGAVGPYLCQQASTPEQLAEWYIKVIDTYNATYLDFDIAAGIDADKLADALLIVQRERPWVKFSFTLPSDPGIGLAGGYGIIETMAKKGVRVDRVNPMTMDYYWTPSNAENAIKVAENVFRQLKQIYPEKSDEEIWKMIGLTPMIGVNDDKSVFTLEDAQQLVDWAIQHKIGSLAFWSVDRDHPGPTGEVSPLHRGTNDPDWAFSHVFVKFMEAFGYTFSAQTSEASVPT | soluble

Source: the DeepSol protein solubility set
